Test results reported in US11884743B2, “Preparation and application of an intact recombinant antibody specific to clothianidin based on the identified variable region sequence” (Zhejiang University, priority 2020, dated 2024).

Tests used:
[1] = antibody binding kinetics by surface plasmon resonance (SPR); settings: CM7 chip, antibody coupled at pH 5.0, clothianidin 0.78-50 nM
Procedure: The CM7 chip was used in this invention, and the optimal pH for both antibodies was 5.0. The final signal values of the antibodies coupled on the chip were 38663 RU and 39854 RU, respectively. Kinetic experiments were performed to determine the affinity of both the parental ascitic monoclonal antibody and the intact recombinant antibody to clothianidin at a range of analyte concentrations ([…], and 0.78 nM).

[2] = heterologous competitive indirect ELISA (coating antigen imidaclothiz-OVA); format: binding
Text: In the early preparation stage of parental ascitic monoclonal antibodies, the assay sensitivity difference was compared between the homologous competitive indirect ELISA (coating antigen was clothianidin-OVA) and the heterologous competitive indirect ELISA (coating antigen was imidaclothiz-OVA). […] Therefore, in the present disclosure, the heterologous competitive indirect ELISA was used to evaluate the sensitivity and specificity of the intact recombinant antibody against clothianidin. A 96-well plate was coated with imidaclothiz-OVA as the heterologous competitive antigen; subsequently, ELISA was performed using a rabbit anti-mouse IgG-HRP as a detection antibody, tetramethylbenzidine (TMB) as a reaction substrate, and clothianidin and other neonicotinoid pesticide standards as analytes.

B1: intact recombinant antibody against clothianidin: Recombinant mouse IgG1/kappa antibody, VH SEQ ID NO: 2, VL SEQ ID NO: 4, expressed in HEK293F cells (antibody, listed as Mus musculus, V domains shown)
VH: EVQLQQSGPELVKPGASVKMSCKASGYTFTNYVMHWVKQKPGQGLEWIGFFYPYIDYTKYNEMFKGKATLTSDTSSSTAYMELSGLTSEDSAVYFCARSQFFYRYDYFDYWGQGTALTVSS
VL: DVLMTQTPLSLPVSLGDQASISCRSSQNIVHSNGNTYLEWYLQKPGQSPKVLIYKVSNRFSGVPDRFSGSGSGTDFTLKINRVEAEDLGIYYCFQGSHVPFTFGSGTKLEIK
With B1 the Kd [1] was 3.24 nM, the “Sensitivity (IC50)” value [2] was 4.62 ng/mL and the “detection range for ELISA (IC20-IC80)” value [2] was 0.92 to 23.04 ng/mL.
